Publication PMC2737813 (Cell host & microbe, 2009)

Target: MBP-TRIM25-FLAG (human, UniProt Q14258 1-630)
Experiment: pull-down

Chain of MBP-TRIM25-FLAG (Q14258 whole entry): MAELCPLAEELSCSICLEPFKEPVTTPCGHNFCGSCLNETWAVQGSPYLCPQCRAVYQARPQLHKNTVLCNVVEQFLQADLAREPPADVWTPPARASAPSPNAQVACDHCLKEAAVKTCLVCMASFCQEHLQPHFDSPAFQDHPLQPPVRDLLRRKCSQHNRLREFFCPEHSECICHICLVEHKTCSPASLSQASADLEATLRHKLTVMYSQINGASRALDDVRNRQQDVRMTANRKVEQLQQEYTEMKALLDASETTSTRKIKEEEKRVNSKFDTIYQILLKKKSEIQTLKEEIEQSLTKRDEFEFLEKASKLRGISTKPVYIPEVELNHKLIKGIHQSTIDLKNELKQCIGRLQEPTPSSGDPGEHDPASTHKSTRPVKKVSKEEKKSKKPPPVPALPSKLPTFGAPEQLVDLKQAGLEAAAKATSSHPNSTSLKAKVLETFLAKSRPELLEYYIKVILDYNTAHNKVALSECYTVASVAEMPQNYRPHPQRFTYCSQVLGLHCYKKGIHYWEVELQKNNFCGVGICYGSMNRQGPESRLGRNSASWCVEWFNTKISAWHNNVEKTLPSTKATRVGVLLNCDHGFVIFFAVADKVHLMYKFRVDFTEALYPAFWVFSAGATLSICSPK

B1: GST-PR8 wt NS1 (natural protein)
chain: MDPNTVSSFQVDCFLWHVRKRVADQELGDAPFLDRLRRDQKSLRGRGSTLGLDIETATRAGKQIVERILKEESDEALKMTMASVPASRYLTDMTLEEMSRDWSMLIPKQKVAGPLCIRMDQAIMDKNIILKANFSVIFDRLETLILLRAFTEEGAIVGEISPLPSLPGHTAEDVKNAVGVLIGGLEWNDNTVRVSETLQRFAWRSSNENGRPPLTPKQKREMAGTIRSEV
B1: binds.
